This data set in a line: background-corrected fluorescence of 3'-dye-labeled ssDNA relative to brightest sequence (3'-GCGCG) (fraction); higher = brighter dye fluorescence (less quenching). Put shortly: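 Single-stranded DNA was built on glass slides by light-directed phosphoramidite synthesis, ending in a 3' Cy3 or Cy5 dye beside each of 1024 permuted pentamers. Arrays were washed in acetonitrile for 2 h at r.t., then scanned at 532 or 635 nm before and after overnight ethylenediamine/ethanol deprotection. Each value averages 10 features per array and at least 3 syntheses. Fluorescence, corrected by subtracting unlabeled-oligo background, is scaled to the brightest sequence.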

± gives the standard error.

In the case of “TTTTTGCATGCTCATCATCATTTTTTTTTTTTTTTTAGGG [GGGAT]”, the background-corrected fluorescence reads like this: (dye: Cy3 (3' terminal)) 0.653 ± 0.032; (dye: Cy5 (3' terminal)) 0.55 ± 0.037.

Sequence “TTTTTGCATGCTCATCATGATTTTTTTTTTTTTTTTAGGC [CGGAT]” yielded a background-corrected fluorescence (dye: Cy3 (3' terminal)) of 0.617 ± 0.027 and a background-corrected fluorescence (dye: Cy5 (3' terminal)) of 0.464 ± 0.026.

As to “TTTTTGCATGCTCATCATGCTTTTTTTTTTTTTTTTAGGA [AGGAT]”, the background-corrected fluorescence by setting is: (dye: Cy3 (3' terminal)) 0.747 ± 0.018; (dye: Cy5 (3' terminal)) 0.617 ± 0.032.

As for “TTTTTGCATGCTCATGAGCATTTTTTTTTTTTTTTTAGCT [TCGAT]”, the background-corrected fluorescence stood at 0.57 ± 0.025 (dye: Cy3 (3' terminal)) and 0.42 ± 0.035 (dye: Cy5 (3' terminal)).

For “TTTTTGCATGCTCATGATCATTTTTTTTTTTTTTTTAGCG [GCGAT]”, the background-corrected fluorescence reads like this: (dye: Cy3 (3' terminal)) 0.658 ± 0.008; (dye: Cy5 (3' terminal)) 0.494 ± 0.055.

Take “TTTTTGCATGCTCATGATGATTTTTTTTTTTTTTTTAGCC [CCGAT]”: the background-corrected fluorescence (dye: Cy3 (3' terminal)) was 0.425 ± 0.017 and the background-corrected fluorescence (dye: Cy5 (3' terminal)) was 0.311 ± 0.015.

For the sequence “TTTTTGCATGCTCATGATGCTTTTTTTTTTTTTTTTAGCA [ACGAT]”, the background-corrected fluorescence runs as follows: (dye: Cy3 (3' terminal)) 0.52 ± 0.038; (dye: Cy5 (3' terminal)) 0.447 ± 0.024.

On to “TTTTTGCATGCTCATGCGCATTTTTTTTTTTTTTTTAGAT”, for which the background-corrected fluorescence runs as follows: (dye: Cy3 (3' terminal)) 0.569 ± 0.031; (dye: Cy5 (3' terminal)) 0.463 ± 0.02.

Take “TTTTTGCATGCTCATGCTCATTTTTTTTTTTTTTTTAGAG [GAGAT]”: the background-corrected fluorescence runs as follows: (dye: Cy3 (3' terminal)) 0.591 ± 0.014; (dye: Cy5 (3' terminal)) 0.477 ± 0.059.

Turning to “TTTTTGCATGCTCATGCTGATTTTTTTTTTTTTTTTAGAC [CAGAT]”, the background-corrected fluorescence runs as follows: (dye: Cy3 (3' terminal)) 0.463 ± 0.023; (dye: Cy5 (3' terminal)) 0.369 ± 0.015.

For the sequence “TTTTTGCATGCTCATGCTGCTTTTTTTTTTTTTTTTAGAA [AAGAT]”, the background-corrected fluorescence by setting is: (dye: Cy3 (3' terminal)) 0.639 ± 0.018; (dye: Cy5 (3' terminal)) 0.533 ± 0.052.

For the sequence “TTTTTGCATGCTGAGCAGCATTTTTTTTTTTTTTTTACTT [TTCAT]”, the background-corrected fluorescence was 0.504 ± 0.046 (dye: Cy3 (3' terminal)) and 0.358 ± 0.039 (dye: Cy5 (3' terminal)).

As to “TTTTTGCATGCTGAGCATCATTTTTTTTTTTTTTTTACTG [GTCAT]”, the background-corrected fluorescence is 0.499 ± 0.024 (dye: Cy3 (3' terminal)) and 0.373 ± 0.027 (dye: Cy5 (3' terminal)).

“TTTTTGCATGCTGAGCATGATTTTTTTTTTTTTTTTACTC [CTCAT]”: the background-corrected fluorescence runs as follows: (dye: Cy3 (3' terminal)) 0.385 ± 0.03; (dye: Cy5 (3' terminal)) 0.273 ± 0.018.

On to “TTTTTGCATGCTGAGCATGCTTTTTTTTTTTTTTTTACTA [ATCAT]”, for which the background-corrected fluorescence amounted to 0.502 ± 0.027 (dye: Cy3 (3' terminal)) and 0.388 ± 0.028 (dye: Cy5 (3' terminal)).

Take “TTTTTGCATGCTGATCAGCATTTTTTTTTTTTTTTTACGT”: the background-corrected fluorescence stood at 0.584 ± 0.018 (dye: Cy3 (3' terminal)) and 0.482 ± 0.038 (dye: Cy5 (3' terminal)).

With “TTTTTGCATGCTGATCATCATTTTTTTTTTTTTTTTACGG [GGCAT]”, the background-corrected fluorescence is, setting by setting: (dye: Cy3 (3' terminal)) 0.697 ± 0.037; (dye: Cy5 (3' terminal)) 0.514 ± 0.04.

For “TTTTTGCATGCTGATCATGATTTTTTTTTTTTTTTTACGC [CGCAT]”, the background-corrected fluorescence runs as follows: (dye: Cy3 (3' terminal)) 0.523 ± 0.0065; (dye: Cy5 (3' terminal)) 0.439 ± 0.032.

For the sequence “TTTTTGCATGCTGATCATGCTTTTTTTTTTTTTTTTACGA [AGCAT]”, the background-corrected fluorescence by setting is: (dye: Cy3 (3' terminal)) 0.627 ± 0.026; (dye: Cy5 (3' terminal)) 0.491 ± 0.031.

On to “TTTTTGCATGCTGATGAGCATTTTTTTTTTTTTTTTACCT [TCCAT]”, for which the background-corrected fluorescence (dye: Cy3 (3' terminal)) came to 0.461 ± 0.017 and the background-corrected fluorescence (dye: Cy5 (3' terminal)) worked out at 0.345 ± 0.023.

As for “TTTTTGCATGCTGATGATCATTTTTTTTTTTTTTTTACCG [GCCAT]”, the background-corrected fluorescence (dye: Cy3 (3' terminal)) stood at 0.55 ± 0.026 and the background-corrected fluorescence (dye: Cy5 (3' terminal)) turned out to be 0.439 ± 0.027.

Consider “TTTTTGCATGCTGATGATGATTTTTTTTTTTTTTTTACCC [CCCAT]”, for which the background-corrected fluorescence by setting is: (dye: Cy3 (3' terminal)) 0.408 ± 0.012; (dye: Cy5 (3' terminal)) 0.276 ± 0.019.

For the sequence “TTTTTGCATGCTGATGATGCTTTTTTTTTTTTTTTTACCA [ACCAT]”, the background-corrected fluorescence runs as follows: (dye: Cy3 (3' terminal)) 0.43 ± 0.017; (dye: Cy5 (3' terminal)) 0.364 ± 0.02.

With “TTTTTGCATGCTGATGCGCATTTTTTTTTTTTTTTTACAT”, the background-corrected fluorescence worked out at 0.489 ± 0.027 (dye: Cy3 (3' terminal)) and 0.382 ± 0.025 (dye: Cy5 (3' terminal)).

Regarding “TTTTTGCATGCTGATGCTCATTTTTTTTTTTTTTTTACAG [GACAT]”, the background-corrected fluorescence was 0.499 ± 0.036 (dye: Cy3 (3' terminal)) and 0.413 ± 0.03 (dye: Cy5 (3' terminal)).

On to “TTTTTGCATGCTGATGCTGATTTTTTTTTTTTTTTTACAC [CACAT]”, for which the background-corrected fluorescence (dye: Cy3 (3' terminal)) is 0.425 ± 0.017 and the background-corrected fluorescence (dye: Cy5 (3' terminal)) was 0.312 ± 0.014.

As to “TTTTTGCATGCTGATGCTGCTTTTTTTTTTTTTTTTACAA [AACAT]”, the background-corrected fluorescence (dye: Cy3 (3' terminal)) came out at 0.538 ± 0.025 and the background-corrected fluorescence (dye: Cy5 (3' terminal)) was determined as 0.433 ± 0.059.

On to “TTTTTGCATGCTGCGCAGCATTTTTTTTTTTTTTTTAATT”, for which the background-corrected fluorescence (dye: Cy3 (3' terminal)) was determined as 0.549 ± 0.014 and the background-corrected fluorescence (dye: Cy5 (3' terminal)) stood at 0.377 ± 0.027.

In the case of “TTTTTGCATGCTGCGCATCATTTTTTTTTTTTTTTTAATG [GTAAT]”, the background-corrected fluorescence runs as follows: (dye: Cy3 (3' terminal)) 0.513 ± 0.02; (dye: Cy5 (3' terminal)) 0.363 ± 0.023.

Consider “TTTTTGCATGCTGCGCATGATTTTTTTTTTTTTTTTAATC [CTAAT]”, for which the background-corrected fluorescence by setting is: (dye: Cy3 (3' terminal)) 0.458 ± 0.036; (dye: Cy5 (3' terminal)) 0.303 ± 0.015.

In the case of “TTTTTGCATGCTGCGCATGCTTTTTTTTTTTTTTTTAATA [ATAAT]”, the background-corrected fluorescence reads like this: (dye: Cy3 (3' terminal)) 0.56 ± 0.0062; (dye: Cy5 (3' terminal)) 0.458 ± 0.047.

Consider “TTTTTGCATGCTGCTCAGCATTTTTTTTTTTTTTTTAAGT [TGAAT]”, for which the background-corrected fluorescence was 0.663 ± 0.018 (dye: Cy3 (3' terminal)) and 0.493 ± 0.031 (dye: Cy5 (3' terminal)).

Take “TTTTTGCATGCTGCTCATCATTTTTTTTTTTTTTTTAAGG [GGAAT]”: the background-corrected fluorescence amounted to 0.627 ± 0.024 (dye: Cy3 (3' terminal)) and 0.518 ± 0.045 (dye: Cy5 (3' terminal)).

Sequence “TTTTTGCATGCTGCTCATGATTTTTTTTTTTTTTTTAAGC [CGAAT]” came in with a background-corrected fluorescence (dye: Cy3 (3' terminal)) of 0.524 ± 0.023 and a background-corrected fluorescence (dye: Cy5 (3' terminal)) of 0.417 ± 0.029.

Consider “TTTTTGCATGCTGCTCATGCTTTTTTTTTTTTTTTTAAGA [AGAAT]”, for which the background-corrected fluorescence is, setting by setting: (dye: Cy3 (3' terminal)) 0.649 ± 0.011; (dye: Cy5 (3' terminal)) 0.589 ± 0.024.

For “TTTTTGCATGCTGCTGAGCATTTTTTTTTTTTTTTTAACT [TCAAT]”, the background-corrected fluorescence reads like this: (dye: Cy3 (3' terminal)) 0.492 ± 0.02; (dye: Cy5 (3' terminal)) 0.353 ± 0.027.

In turn, “TTTTTGCATGCTGCTGATCATTTTTTTTTTTTTTTTAACG [GCAAT]” gave a background-corrected fluorescence (dye: Cy3 (3' terminal)) of 0.51 ± 0.034 and a background-corrected fluorescence (dye: Cy5 (3' terminal)) of 0.426 ± 0.037.

As to “TTTTTGCATGCTGCTGATGATTTTTTTTTTTTTTTTAACC [CCAAT]”, the background-corrected fluorescence is 0.396 ± 0.025 (dye: Cy3 (3' terminal)) and 0.278 ± 0.021 (dye: Cy5 (3' terminal)).

Take “TTTTTGCATGCTGCTGATGCTTTTTTTTTTTTTTTTAACA [ACAAT]”: the background-corrected fluorescence is, setting by setting: (dye: Cy3 (3' terminal)) 0.557 ± 0.022; (dye: Cy5 (3' terminal)) 0.405 ± 0.033.

On to “TTTTTGCATGCTGCTGCGCATTTTTTTTTTTTTTTTAAAT”, for which the background-corrected fluorescence runs as follows: (dye: Cy3 (3' terminal)) 0.612 ± 0.027; (dye: Cy5 (3' terminal)) 0.454 ± 0.038.

With “TTTTTGCATGCTGCTGCTCATTTTTTTTTTTTTTTTAAAG [GAAAT]”, the background-corrected fluorescence reads like this: (dye: Cy3 (3' terminal)) 0.552 ± 0.036; (dye: Cy5 (3' terminal)) 0.397 ± 0.021.

In the case of “TTTTTGCATGCTGCTGCTGATTTTTTTTTTTTTTTTAAAC [CAAAT]”, the background-corrected fluorescence by setting is: (dye: Cy3 (3' terminal)) 0.447 ± 0.028; (dye: Cy5 (3' terminal)) 0.336 ± 0.028.

For the sequence “TTTTTGCATGCTGCTGCTGCTTTTTTTTTTTTTTTTAAAA [AAAAT]”, the background-corrected fluorescence (dye: Cy3 (3' terminal)) was determined as 0.631 ± 0.013 and the background-corrected fluorescence (dye: Cy5 (3' terminal)) came out at 0.52 ± 0.028.

Values taken from the supplement of paper PMC9428881.
